Drawing on patent EP4703385A1 (Fortvita Biologics Inc., dated 2026), this text covers Kd for 2 molecules.

The target in this experiment is T1, Human CD40 Ligand/TNFSF5 Protein, His, Flag Tag, active trimer (MALS verified) (human, UniProt P29965 108-261, limits assumed).
T1 construct: Bought protein, described as an active trimer; The order of the CD40L part and the tags is not known; also called CD40L protein; CD40L (Acro CDL-H52Db); not shown: His tag and Flag tag
T1 sequence (looked up): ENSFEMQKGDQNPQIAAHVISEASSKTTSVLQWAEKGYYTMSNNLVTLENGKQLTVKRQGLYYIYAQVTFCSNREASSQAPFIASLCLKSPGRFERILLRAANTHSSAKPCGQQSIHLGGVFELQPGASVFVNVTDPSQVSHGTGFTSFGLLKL
Briefly: bio-layer interferometry (ForteBio); antibody 100 nM, human CD40L 100 nM, 30 C.

B1: Hz47E2 (antibody, human IgG1, kappa, L234A L235A, V domains shown)
VH: EVQLVESGGGLVKPGGSLRLSCAASGFTFSDYAMSWVRQAPGKGLEWVSEISTVHTYTYYSDAVAGRFTISRDNAKNSLYLQMNSLRAEDTAVYYCARDRVLDYWGQGTLVTVSS
VL: DIVMTQSPDSLAVSLGERATINCRASESVEYYDTSLMQWYQQKPGQPPKLLIYAASNLESGVPDRFSGSGSGTDFTLTISSLQAEDVAVYYCQQTKKLPWTFGQGTKVEIKR
notes: Expressed in ExpiCHO cells; also called Antibody Hz47E2; humanized anti-CD40L antibody Hz47E2
Regarding B1, binding was put at a Kd of 0.315 nM.

B2: Hz33B9C5 (antibody, human IgG1, kappa, L234A L235A, V domains shown)
VH: QVQLVESGGGLVKPGGSLRLSCAASGFTFSDYYMYWIRQAPGKGLEWVSTISGGGTYTYSPDSVKGRFTISRDNAKNSLYLQMNSLRAEDTAVYYCARGEPGLAYWGQGTLVTVSS
VL: DIVMTQSPDSLAVSLGERATINCKASQSVDYYGDSYMHWYQQKPGQPPKLLIYASSNLESGVPDRFSGSGSGTDFTLTISSLQAEDVAVYYCQQSHEDPWTFGGGTKVEIKR
notes: Expressed in ExpiCHO cells; also called Antibody Hz33B9C5; humanized anti-CD40L antibody Hz33B9C5
In turn, B2 registered a Kd of 0.297 nM.

Broadly, the Kd is the free concentration of one partner at which half of the binding sites on the other are occupied at equilibrium, for simple one-to-one binding.
